{"source": "paper PMC11032371", "about": "(Cell Death Discovery, 2024)", "key": {"[1]": {"biological_target": "the molecule itself", "assay": "SEC; analytical size exclusion, Superose 12 10/300; 50 mM HEPES pH 8.5, 150 mM NaCl, 1 mM DTT, 0.5% Triton X-100"}, "monoUb [2]": {"biological_target": "T1, monoUb (UniProt P0CG48 1-76)", "T1 construct": "ubiquitin; 15N-labelled in some NMR titrations; also called ubiquitin", "assay": "ITC; 293 K; 50 mM HEPES pH 7.4, 50 mM NaCl, 0.5 mM TCEP; cell 50–100 μM, syringe usually 10-fold; 20 injections of 2 μl; averages of at least two experiments; which partner was in the syringe not stated", "settings": "both partners purified"}, "M1-diUb [3]": {"biological_target": "T2, M1-diUb (UniProt P0CG48 1-76; P0CG48 1-76)", "T2 construct": "ubiquitin, distal unit of M1-linked (linear) diUb; ubiquitin, proximal unit of M1-linked (linear) diUb; also called M1-linked diUb; linear diUb", "assay": "ITC; 293 K; 50 mM HEPES pH 7.4, 50 mM NaCl, 0.5 mM TCEP; cell 50–100 μM, syringe usually 10-fold; 20 injections of 2 μl; averages of at least two experiments; which partner was in the syringe not stated", "settings": "both partners purified"}, "monoUb [4]": {"biological_target": "T1, monoUb", "assay": "SPR; Biacore S200; TF-N4BP1 fragment amine-coupled to a CM5 chip, mono- and diUb flowed over at 30 μl/min; HBS-P+ (10 mM HEPES pH 7.4, 150 mM NaCl, 0.05% Tween 20), 25 °C; KD from plateau levels", "settings": "both partners purified"}, "M1-diUb [5]": {"biological_target": "T2, M1-diUb", "assay": "SPR; Biacore S200; TF-N4BP1 fragment amine-coupled to a CM5 chip, mono- and diUb flowed over at 30 μl/min; HBS-P+ (10 mM HEPES pH 7.4, 150 mM NaCl, 0.05% Tween 20), 25 °C; KD from plateau levels", "settings": "both partners purified"}}, "data": [{"binder": "N4BP1 (613-774), from pCold-I, His-tagged (domain or fragment, mouse, UniProt Q6A037 613-774, looked up, N4BP1, mouse, RNase domain, residues 613-774; source: E. coli BL21, purified) ADLKHIVIDGSNVAITHGLKKFFSCRGIAIAVEYFWKLGNRNITVFVPQWRTRRDPNITEQHFLTQLQELGILSLTPARMVFGERIASHDDRFLLHLADKTGGIIVTNDNFREFVTESVSWREIITKRLLQYTFVGDIFMVPDDPLGRNGPRLEEFLRKEAF", "values": [{"measurement": "binding result", "setting": "[1]", "result": "binds"}]}, {"binder": "ETSELREALLKIFPDSEQKLKIDQILAAHPYMKDLNALSALVLD (domain or fragment, mouse, UniProt Q6A037 850-893, looked up, His-tag removed with 3C protease for ITC and NMR; 15N- or 15N/13C-labelled for NMR; also called isolated CUE domain; N4BP1 CUE domain; not shown: His-tag, N-terminal, cleaved)", "note": "[N4BP1 (850–893)]", "values": [{"measurement": "binding result", "setting": "[1]", "result": "binds"}, {"measurement": "Kd", "setting": "monoUb [2]", "result": "27.5 ± 5.6", "unit": "µM"}, {"measurement": "dH", "setting": "monoUb [2]", "result": -5.2, "unit": "kcal/mol"}, {"measurement": "stoichiometry N", "setting": "monoUb [2]", "result": 0.915}, {"measurement": "dH", "setting": "M1-diUb [3]", "result": -5.3, "unit": "kcal/mol"}, {"measurement": "stoichiometry N", "setting": "M1-diUb [3]", "result": 2.16}]}, {"binder": "TF-N4BP1 (613–893) (domain or fragment, mouse, UniProt Q6A037 613-893, looked up, also called dimeric N4BP1) ADLKHIVIDGSNVAITHGLKKFFSCRGIAIAVEYFWKLGNRNITVFVPQWRTRRDPNITEQHFLTQLQELGILSLTPARMVFGERIASHDDRFLLHLADKTGGIIVTNDNFREFVTESVSWREIITKRLLQYTFVGDIFMVPDDPLGRNGPRLEEFLRKEAFLRHMQPLLNALPSVGTFDPGFRSPSTQVANNSHQPPPRIQTSSSPWLPQQSHFTALATLPSMQQNPPLPAQRSSAETSELREALLKIFPDSEQKLKIDQILAAHPYMKDLNALSALVLD", "values": [{"measurement": "Kd", "setting": "monoUb [4]", "result": 84.9, "unit": "µM"}, {"measurement": "Kd", "setting": "M1-diUb [5]", "result": 430, "unit": "nM"}]}, {"binder": "N4BP1 (613–893), from pCold-I, His-tagged (domain or fragment, mouse, UniProt Q6A037 613-893, looked up, source: E. coli BL21, purified) ADLKHIVIDGSNVAITHGLKKFFSCRGIAIAVEYFWKLGNRNITVFVPQWRTRRDPNITEQHFLTQLQELGILSLTPARMVFGERIASHDDRFLLHLADKTGGIIVTNDNFREFVTESVSWREIITKRLLQYTFVGDIFMVPDDPLGRNGPRLEEFLRKEAFLRHMQPLLNALPSVGTFDPGFRSPSTQVANNSHQPPPRIQTSSSPWLPQQSHFTALATLPSMQQNPPLPAQRSSAETSELREALLKIFPDSEQKLKIDQILAAHPYMKDLNALSALVLD", "values": [{"measurement": "binding result", "setting": "[1]", "result": "binds"}]}]}
